Results as given in PMC5472775.

Experiments:
[1] = biological target: CENP-C-CD R521A R521A (Homo sapiens) (UniProt Q03188); test: EMSA; conditions: apparent Kd; 200 nM nucleosome; EMSA: 200 nM nucleosomes, 20 mM Tris-Cl pH 7.5, 1 mM EDTA, 1 mM DTT, on ice 1 h, 5% native PAGE; footprinting at room temperature, 5 min
[2] = biological target: CENP-C-CD R522A R522A (Homo sapiens) (UniProt Q03188); test: EMSA; conditions: apparent Kd; 200 nM nucleosome; EMSA: 200 nM nucleosomes, 20 mM Tris-Cl pH 7.5, 1 mM EDTA, 1 mM DTT, on ice 1 h, 5% native PAGE; footprinting at room temperature, 5 min

Sequence: ATCAAATATCCACCTGCAGATTCTACCAAAAGTGTATTTGGAAACTGCTCCATCAAAAGGCATGTTCAGCTCTGTGAGTGAAACTCCATCATCACAAAGAATATTCTGAGAATGCTTCCGTTTGCCTTTTATATGAACTTCCTCGAT (double strand) [CENP-A NCP, Cy5-H2B, 147 bp DNA]
- Kd [1]: 267 nM
- Kd [2]: 655 nM
